One assay addresses T1, PLEK on the HuProt array (human, UniProt P08567 1-350).
T1 construct: PLEK (pleckstrin), human; array proteins are said to come from full-length genes; source: immobilised on the Human Proteome Microarray v3.0 (HuProt array)
T1 sequence (looked up): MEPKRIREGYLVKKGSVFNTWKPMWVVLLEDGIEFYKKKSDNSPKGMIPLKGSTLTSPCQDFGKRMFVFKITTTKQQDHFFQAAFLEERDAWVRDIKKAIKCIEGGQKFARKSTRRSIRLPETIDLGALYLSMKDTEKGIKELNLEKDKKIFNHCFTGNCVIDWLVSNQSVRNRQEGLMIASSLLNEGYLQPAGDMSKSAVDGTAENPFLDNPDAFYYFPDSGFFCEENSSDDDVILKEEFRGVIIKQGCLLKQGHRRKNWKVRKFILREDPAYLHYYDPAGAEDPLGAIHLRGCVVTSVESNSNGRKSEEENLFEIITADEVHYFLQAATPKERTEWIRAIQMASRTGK
The assay is described as follows: peptide or protein array. As to conditions: both partners purified.

For assay [1], the target named is T2, DDX49 on the HuProt array (human, UniProt Q9Y6V7 1-483).
T2 construct: DDX49, human; array proteins are said to come from full-length genes; source: immobilised on the Human Proteome Microarray v3.0 (HuProt array)
T2 sequence (looked up): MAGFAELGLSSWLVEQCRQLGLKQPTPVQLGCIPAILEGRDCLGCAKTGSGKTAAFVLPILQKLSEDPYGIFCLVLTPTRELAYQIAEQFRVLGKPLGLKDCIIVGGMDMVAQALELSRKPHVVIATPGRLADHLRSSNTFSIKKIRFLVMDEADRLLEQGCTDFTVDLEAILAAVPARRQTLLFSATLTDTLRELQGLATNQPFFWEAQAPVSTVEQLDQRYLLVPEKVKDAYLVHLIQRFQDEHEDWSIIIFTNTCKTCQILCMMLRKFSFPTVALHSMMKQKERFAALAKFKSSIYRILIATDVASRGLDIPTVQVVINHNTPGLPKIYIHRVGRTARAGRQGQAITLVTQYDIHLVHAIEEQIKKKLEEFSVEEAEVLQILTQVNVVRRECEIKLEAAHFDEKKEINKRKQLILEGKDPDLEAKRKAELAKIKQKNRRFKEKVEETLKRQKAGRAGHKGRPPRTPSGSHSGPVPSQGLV
The assay is described as follows: peptide or protein array. Conditions: both partners purified.

B1: ZIKV-NS2A, N-terminal GST fusion, Cy5-labelled (natural protein)
chain: GSTDHMDHFSLGVLVILLMVQEGLKKRMTTKIIMSTSMAVLVVMILGGFSMSDLAKLVILMGATFAEMNTGGDVAHLALVAAFKVRPALLVSFIFRANWTPRESMLLALASCLLQTAISALEGDLMVLINGFALAWLAIRAMAVPRTDNIALPILAALTPLARGTLLVAWRAGLATCGGIMLLSLKGKGSVKKNLPFVMALGLTAVRVVDPINVVGLLLLTRSGKR
modifications: Cy5 (NHS-tethered dye), sites not stated
notes: source: yeast (vector pEGH-A), purified on glutathione beads; not shown: GST, N-terminal, kept
Consider B1, for which the binding result with PLEK on the HuProt array is recorded as “binds”.

B2: ZIKV-NS4B, N-terminal GST fusion, Cy5-labelled (natural protein)
chain: NELGWLERTKNDIAHLMGRREEGATMGFSMDIDLRPASAWAIYAALTTLITPAVQHAVTTSYNNYSLMAMATQAGVLFGMGKGMPFMHGDLGVPLLMMGCYSQLTPLTLIVAIILLVAHYMYLIPGLQAAAARAAQKRTAAGIMKNPVVDGIVVTDIDTMTIDPQVEKKMGQVLLIAVAISSAVLLRTAWGWGEAGALITAATSTLWEGSPNKYWNSSTATSLCNIFRGSYLAGASLIYTVTRNAGLVKRR
modifications: Cy5 (NHS-tethered dye), sites not stated
notes: also called SN4B; source: yeast (vector pEGH-A), purified on glutathione beads; not shown: GST, N-terminal, kept
Turning to B2, the binding result in assay [1] is given as “binds”.

(Values after PMC8498969, “An Integrated Systems Biology Approach Identifies the Proteasome as A Critical Host Machinery for ZIKV and DENV Replication” (Genomics, Proteomics & Bioinformatics, 2021).)
